The nanobody polyreactivity screen of Harvey et al. (2022)

Assay: yeast display, Sf9 membrane polyspecificity reagent, FACS + sequencing; frameworks hold sequencing errors
Outline: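 Nanobodies came from a synthetic yeast display library in Saccharomyces cerevisiae BJ5465, induced with galactose for 36–48 hours and stained for 1 hour at 4 °C with 10% biotinylated, detergent-solubilized Sf9 membrane reagent. Cells were enriched on streptavidin microbeads and then FACS-sorted, with low and high (top ~1%) gates set on anti-HA fluorescence for expression and streptavidin fluorescence for reagent binding. Each polyreactivity label reflects the gate a clone came from. Genes were amplified by colony PCR, sequenced by MiSeq 2 × 250 and filtered by CDR length.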
In the case of “QDQLVESGGGLVQAGGSLRLSCAASGFIFKWNAMGWYRQAPGKERELVAGITRGGSTYADSVKGRFTISRDNAKNTVYLQMNSLKPEDTAVDYCAAGDYDEYDYWGQGTQVTVSS”, the “polyreactivity (PSR sort gate)” value is reported as “high polyreactivity”. In the case of “QDQLVESGGGLVQAGGSLRLSCAASGFTFGSYAMGWYRQAHGKERELVAAITASGGSTYYADSVKGRFTISRDNAKNTVYLQMNSLKPEDTAFYYCATRRYDGVAAFRMYYWGQGTQVTVSS”, the “polyreactivity (PSR sort gate)” value is reported as “high polyreactivity”. For “QDQLVESGGGLVQAGGSLRLSCAASGFTFRDYTRGWYRQAPGKERELVAAISLSGGSTYYADSVKGRFTISRDNAKNTVYFQMNSLKPEDTAVYYCAAGYLLWRTWDYGAGHNFWGQGTQVTVSS”, the “polyreactivity (PSR sort gate)” value was “high polyreactivity”. In the case of “QDQLVESGGGLVQAGGSLRLSCAASGFTFRHYVMGGSRQAPGKERELVAAIDVRGGSTYYADSVKGRFTISRDNAKNTVYLQMNSLKPEDTAVYYCAKRLIPRLPIMQKMDYWGQGTQVTVSS”, the “polyreactivity (PSR sort gate)” value is reported as “low polyreactivity”. In the case of “QDQLVESGGGLVQAGGSLRLSCAASGFTFSAYAMGWYRQAPGKERELVAAISTRGGSTRYADSVKGRFTISRDNAKNTVYLQMNSLKPEDTAVYYCAVEVYSYLYYETYPTEYEYWGQGTQVTVSS”, the “polyreactivity (PSR sort gate)” value is reported as “high polyreactivity”. For “QDQLVESGGGLVQAGGSLRLSCAASGFTFYPYTRGWYRQAPGKERELVAAISKSGGSTYYADSVKGRFTISRDNAKNTVYLQMNSLKPEDSAVYYCAAQRYSYYTPDDDYWGQGTQVTVSS”, the “polyreactivity (PSR sort gate)” value was “high polyreactivity”. With “QDQLVESGGGLVQAGGSLRLSCAASGGIFFYYVMGWYRKAPGKEREFVAAITSGGSTYYADSVKGRFTISGDNAKNTVYLQMNRLKPEDTAVYYCNARDVVDYSVWSRYAYDYWGQGTQVTVSS” the “polyreactivity (PSR sort gate)” value was “low polyreactivity”. For “QDQLVESGGGLVQAGGSLRLSCAASGGTFSLYAKGWYRQAPGKEREFVAAISWRGTSTYYADSVKGRFTISRDNAKNTVYLQMNSLKPEDTAVYYCAARAWHEYGSWVQGTQVTVSS”, the “polyreactivity (PSR sort gate)” value was “high polyreactivity”. In the case of “QDQLVESGGGLVQAGGSLRLSCAASGHIISTYAMGWYRPAPGKERQLVASISENGGTTYYADSVKGRFTISRDIAKNTVYLQMYSLKPEDTAVYYCNADAYVYFDDGDYWGQGTQVTVSS”, the “polyreactivity (PSR sort gate)” value is reported as “low polyreactivity”. In the case of “QDQLVESGGGLVQAGGSLRLSCAASGIIFYGYAMGWYRQAPGKERQLVAGISSGGSTYYADSVKGRFTISRDNAKNTVYLQMNSLNPEDTAVYYCNAEGGYSYESTDHYRYDYWGLGTQVTVSS”, the “polyreactivity (PSR sort gate)” value is reported as “low polyreactivity”. With “QDQLVESGGGLVQAGGSLRLSCAASGIIFYVYAMGWYRLAPGKERELVAAISRSGGRTYYADSVKGRFTISRDNAKNTVYFQMNSLKPEDTAVYYCAADAYRTPTHYYWGQGTQVTVSS” the “polyreactivity (PSR sort gate)” value was “high polyreactivity”. In the case of “QDQLVESGGGLVQAGGSLRLSCAASGITFDRYALGWYRQAPGKEREFVAAISWRGGSTYYADSVKGRFTISRDNAKNTVYLQMNSLKPEDTAVYYCAVGYYDHDYWYEYWGQGSQVTVSS”, the “polyreactivity (PSR sort gate)” value is reported as “high polyreactivity”. For “QDQLVESGGGLVQAGGSLRLSCAASGITFQWYAMGWYRQAPGKEREFVAAITYRGGSTYYADSVKGRFTISRDNAKNTVYLQMNSLKPEDTAVYYCARDDSRLLHPSWLDYWGKGTQVTVSS”, the “polyreactivity (PSR sort gate)” value was “high polyreactivity”. With “QDQLVESGGGLVQAGGSLRLSCAASGITFSSNAMGGYRQAPGKERELVAAISRNGDRTYYADSVKGRFTISRDNAKNTVYLQMNSLKPEVTAVYYCATAYPGSRRDYWGQGTQVTVSS” the “polyreactivity (PSR sort gate)” value was “high polyreactivity”. With “QDQLVESGGGLVQAGGSLRLSCAASGITFYTYAMGWSRQAPGKERELVAAISRSGGSTYYADSVKGRITISRDNAKYTVYLQMNSLKPEDSAVYYCAAVYRGRDMDYWGLGTQVTVSS” the “polyreactivity (PSR sort gate)” value was “high polyreactivity”. In the case of “QDQLVESGGGLVQAGGSLRLSCAASGLIFIDYAMGWYRQAPGKERELVAAITRGGARTYYADSVKGRFTISRDNAKNTVYLQMNSLNPEDTAVYYCAADRPGSRYIDVDYWGQGTQVTVSS”, the “polyreactivity (PSR sort gate)” value is reported as “high polyreactivity”. With “QDQLVESGGGLVQAGGSLRLSCAASGLIFLYAMGWYRQAPGKERELVAAISNGGSTYYADSVKGRFTISRDNAKNTVYLQMNSLKPEDTAVYYCAAKGVRRRYRPDMYYWGQGTQVTVSS” the “polyreactivity (PSR sort gate)” value was “high polyreactivity”. For “QDQLVESGGGLVQAGGSLRLSCAASGLIFNVNNMGWYRQAPGKDRELVAAISWSGTSTYYADSVKGRFTISRDKAKNTVYLQMNSLKPEDTAVYYCAAYNHRWEYEYWGQGTQVTVSS”, the “polyreactivity (PSR sort gate)” value was “high polyreactivity”. For “QDQLVESGGGLVQAGGSLRLSCAASGLIFRIYAMGWYRQAAGKERELVAAITSGGTSTSYADSVKGRFSISRDNAKNTVYLQMNSLKPEDTAVYYCNARWSDRVRIGLDYWGQGTQVTVSS”, the “polyreactivity (PSR sort gate)” value was “high polyreactivity”. With “QDQLVESGGGLVQAGGSLRLSCAASGLIIRWYAMGWDRQAPGKERELVAAISGNGGRTYYADSVKGRFTISRDNASNTVYLQMNSLKPEDTAVYYCAAEYRRALGVDYWGQGTQVTVSW” the “polyreactivity (PSR sort gate)” value was “high polyreactivity”. With “QDQLVESGGGLVQAGGSLRLSCAASGLTFDSYAMGWYRQAPGKERELVAAISWNTASTYYADSVKGRFTISRDNAKNTVYLQMNSLKPEDTAVYYCAAARSRRPHYDYWRQGTQVTVSS” the “polyreactivity (PSR sort gate)” value was “high polyreactivity”. For “QDQLVESGGGLVQAGGSLRLSCAASGLTFEVYAMGWYRQAPGKERELVAAISSGGGSKYYADSVKGRFTISRDNAKNTVYLQMISLKPEDTAVYYCNAVAKLYYWRYDYLGQGTQVTVSS”, the “polyreactivity (PSR sort gate)” value was “low polyreactivity”. With “QDQLVESGGGLVQAGGSLRLSCAASGLTFRLYAMGSYRQAPAKEREWVAAITSSSGSTYYADSVKGRFTISRDTANYTVYLQMNSLKPEDTAVYYCNAVRYTTQTPNVDYGYWGLGTQVTVSS” the “polyreactivity (PSR sort gate)” value was “high polyreactivity”. In the case of “QDQLVESGGGLVQAGGSLRLSCAASGLTLLHYAMGWYRQAPGKERELVAAISTRGGSTYYADSVKGRFTISRDNAKNTVYLQMNSLKPEDTADYYCNALKGRPRGTAGYYRVEYWGQGTQVTVSS”, the “polyreactivity (PSR sort gate)” value is reported as “high polyreactivity”. In the case of “QDQLVESGGGLVQAGGSLRLSCAASGLTYYVYSMGWYRQAPGKERELVARITWSGGSTYYADSVKGRFTISRDNAKNTVYLQMNSVKAEDTAVYYSAAEWSEESDYWGQVTQVTVSS”, the “polyreactivity (PSR sort gate)” value is reported as “low polyreactivity”. For “QDQLVESGGGLVQAGGSLRLSCAASGNIFKCKVMGWYRQAPGKERELVAAISRSGGRTYYADSVKGRFTISRDNAKNTVYLQMNSLKPVDTAVYYCNTKHRTKPTRPVDYWGQGTQVTVSS”, the “polyreactivity (PSR sort gate)” value was “high polyreactivity”. In the case of “QDQLVESGGGLVQAGGSLRLSCAASGNIFWSNAMGWYRQAPVKERELVAGIRSTGGSTYYADSVKGRFTISRDNAKNTVYLQMNSLKPEDTAVYYCAAEHWYSTPWWTDDYWGQGTQVTLSS”, the “polyreactivity (PSR sort gate)” value is reported as “high polyreactivity”. With “QDQLVESGGGLVQAGGSLRLSCAASGRIFNQYGMGWYRQAPGKERELVAAIRSGDSTNYADSVKGRFTISRDNAKNTVYLQMNSLKPEDTAVYYCARDRPGDYAGYDYWGQGTQVTVSS” the “polyreactivity (PSR sort gate)” value was “low polyreactivity”. With “QDQLVESGGGLVQAGGSLRLSCAASGRIFPAYVMGWYRQAPGKERELVATIDNGGGTYYADSVKGRFTISRDNAKNTVYLQMNSLKPEDTAVYYCARDRHVRWGLKMDYWGQGTQVTVSS” the “polyreactivity (PSR sort gate)” value was “low polyreactivity”. For “QDQLVESGGGLVQAGGSLRLSCAASGRIISLYAMGWYRQAPVKERDLVAAISRRSGNTNYADSVKGRFTISRDNAKNTVYLQMNSLKPEDTAVYYCAARPGAISSTSPYDYWGQGTQVTVSS”, the “polyreactivity (PSR sort gate)” value was “high polyreactivity”. For “QDQLVESGGGLVQAGGSLRLSCAASGRIVSDYAMGWYRQAPGKERELVARISRSDGSSYYADSVKGRFTISRDNAKNTVYLQMNSLKPEDTAVYYCAAQWTDGRRDHWWDKGFYYWGQGTQVTVSS”, the “polyreactivity (PSR sort gate)” value was “low polyreactivity”. With “QDQLVESGGGLVQAGGSLRLSCAASGRLFSQYAMGWYRQAPGKERELVAAISWRTGSTYYADSVKGRFTISRDNAKNTVYLQMNSLKPEDTAVYYCSAANAGRYPYNYSGQGTQVTVSS” the “polyreactivity (PSR sort gate)” value was “high polyreactivity”. For “QDQLVESGGGLVQAGGSLRLSCAASGRNFPGYVMGWYRQAPGKERELVAVITSNGGITYYADSVKGRFTISRDNAKNTVYLQMNSLKPEDTAVYYCAAYEIYYEFDSWGQGTLVTVSS”, the “polyreactivity (PSR sort gate)” value was “low polyreactivity”. With “QDQLVESGGGLVQAGGSLRLSCAASGRTFDSYAMGWYRQAPGKERELVAAIDADSVKGRFTISRDNAKNTVYLQMNSLKPEVTAVYYCAKPSRWGWTGFYAYEYWGQGTQVTVSS” the “polyreactivity (PSR sort gate)” value was “low polyreactivity”. For “QDQLVESGGGLVQAGGSLRLSCAASGRTFEGNAMGWYRQAPGKERELVAAITSGGRTNYADSVKGRFTISRDNAKNTVYLQMNSLKPEDTEVYYCANVYRSIGPNVSRYGLSYYYWGQGTQVTVSS”, the “polyreactivity (PSR sort gate)” value was “low polyreactivity”. In the case of “QDQLVESGGGLVQAGGSLRLSCAASGRTFGEYAMGWYRQAPGKERELVAAISSTGSTYYADSVKGRFTISRDNAKNTVYLQMNSLKPEDTAVYDCAAEIVRYGDEYDYWGQGTQVTVSS”, the “polyreactivity (PSR sort gate)” value is reported as “low polyreactivity”. In the case of “QDQLVESGGGLVQAGGSLRLSCAASGRTFGVNAMGWYRQAPGKERELVASIRWNGGSTYYADSVKGRFTISRDNAKNTVYFQMNSLKPEDTAVYYCNAVRRYRSREFDYWGQGTQVNVSS”, the “polyreactivity (PSR sort gate)” value is reported as “low polyreactivity”. In the case of “QDQLVESGGGLVQAGGSLRLSCAASGRTFHSYVMGWYRQAPGKERELVAAISRSGGNTYYADSVKGRFTISRDNAKNTVYLQMNSLKPEDTAVYYCAAALSAYVKWDYYYWGQGTQVTVSS”, the “polyreactivity (PSR sort gate)” value is reported as “low polyreactivity”. With “QDQLVESGGGLVQAGGSLRLSCAASGRTFIYYVMGWSRQAPGKERELVAAISLRGSSTRYADSVKGRFTISRDNAKNTVYLQMNSLKPEDTAVYYCAARPRLSRYDYWGQGTQVTVSS” the “polyreactivity (PSR sort gate)” value was “high polyreactivity”. For “QDQLVESGGGLVQAGGSLRLSCAASGRTFRSYAMGWSRQAPGKERELVAAISTRGGSTYYADSVKGRFTISRDYAKNTVYLQMNSLKPEDTAVYYCAARGTPSARYGDWGQGTQVTVSS”, the “polyreactivity (PSR sort gate)” value was “high polyreactivity”. In the case of “QDQLVESGGGLVQAGGSLRLSCAASGRTFSRYTMGWYRQAPGKERELVAAISKRGGSTYYADSVKGRLTISRDNAKNTVYLQMNSLKPADTAVYYCNAYGLVGLDGVKMYYWGQGTQVTVSS”, the “polyreactivity (PSR sort gate)” value is reported as “high polyreactivity”.
